Experimental data from US20140186340A1, “Methods and Compositions for Normalization of Tumor Vasculature by Inhibition of LOXL2” (GILEAD BIOLOGICS, INC., priority 2011, published 2014).

How the values were obtained:
[1] = system: SKOV3 ovarian carcinoma cells; assay: SKOV3 tumor xenograft, tumor growth; type: in vivo, mice; details: twice weekly i.p., AB0023 15 mg/kg, taxol 5 mg/kg, monitored 40 days, vs vehicle controls
Procedure: (§1) SKOV3 ovarian carcinoma cells were obtained from ATCC, Manassas, Va. 5×10^6 cells, suspended in 50% (v/v) Matrigel, were implanted subcutaneously in female athymic nude mice. After tumors attained a volume of 100 mm^3, the mice received twice weekly intra-peritoneal injections of vehicle, anti-LOXL2 antibody AB0023 (15 mg/kg), taxol (5 mg/kg) or a combination of taxol and AB0023. The experiment was terminated when tumors from control (vehicle-treated) animals attained an average volume of 1,000 mm^3, at which point the animals were sacrificed, tumors were removed and snap-frozen, and 5 μm thick frozen sections were prepared from the frozen tumors.
Female athymic nude mice were implanted with SKOV3 ovarian carcinoma cells which, when transplanted, form highly vascularized subcutaneous tumors. Expression of LOXL2 in these tumors was confirmed by immunohistochemistry; it was noted that most of the LOXL2 immunostaining was associated with vascular structures. When the average tumor volume of the population reached 100 mm^3, the mice were treated twice weekly with intra-peritoneal injections of the anti-LOXL2 antibody AB0023 (15 mg/kg), taxol (5 mg/kg) or a combination of AB0023 and taxol at the concentrations given above. Control mice received injection of vehicle (PBST). Tumor growth was monitored for 40 days.

SKOV3-derived tumors [2] = assay: SKOV3 xenograft, tumor hypoxia by carbonic anhydrase IX (CA9) levels; type: in vivo, mice; details: vs vehicle
Procedure: as §1
Sections were fixed with 4% paraformaldehyde and blocked using Peroxidazed 1 and Background Sniper (Biocare Medical, Concord, Calif.) before incubation with primary antibody. Anti-CA9 antibody (Abcam) was applied and Mach2 HRP-polymer (Biocare Medical) was used as secondary antibody. All sections were dehydrated through a series of ethanol dilutions and xylene, mounted using a resinous medium, and visualized using DAB chromogen.
Mice with SKOV3-derived tumors, as described in Example 4, were treated with AB0023 and/or taxol; and the effects on levels of carbonic anhydrase IX (CA9), a marker of hypoxia, were determined. […] Thus, inhibition of LOXL2 reduces vessel density and reduces hypoxia in tumors.

[3] = system: human umbilical vein endothelial cells (HUVEC); assay: Tube formation on Matrigel by HUVEC; type: cell-based; details: antibody 1 ug/ml, compared to control antibody AC-1; bFGF 5 ng/ml, 24 hours
Excerpt: (§2) HUVEC were isolated from umbilical veins and cultured as described. Gospodarowicz et al. (1983) J. Cell Biol. 97:1677-1685; Kigel et al. (2008) PLoS One 3:e3278. Recombinant human bFGF was produced and purified according to Tessler et al. (1990) J. Cell. Physiol. 145:310-317. For inhibition of LOXL2 expression by shRNA, lentiviruses directing expression of a LOXL2-targeted shRNA and a control shRNA were generated and used to infect HUVEC as described. Brekhman et al. (2009) BMC Cancer 9:415. The anti-LOXL2 monoclonal antibody (AB0023) has been described. See, e.g., Rodriguez et al. (2010) J. Biol. Chem. 285:20964-20974 and United States Patent Application Publication No. 2009/0053224 (Feb. 26, 2009).
Tube formation on Matrigel was carried out as described. Varshaysky et al. (2008) Cancer Res. 68:6922-2931. For shRNA inhibition HUVEC, infected with either shLOXL2-encoding or control lentivirus, were seeded in Matrigel-coated 48 well tissue culture plates (1.6×10^4 cells/well) and incubated with growth medium supplemented with bFGF (5 ng/ml) for 24 hours. […] Phase-contrast images were photographed at 63× magnification and bifurcations-per-field of tube structures in microscopic fields were quantified by manual counting.

[4] = system: bFGF-induced angiogenesis; assay: Matrigel plug assay, flow cytometric analysis; type: in vivo, mice; details: plugs harvested 7 days after implantation, vs vehicle
Procedure: The anti-angiogenic effects of systemic AB0023 administration in the Matrigel plug assay system were also assessed using flow cytometry to assay for cells expressing CD31, and for CD45-negative cells that express the vascular endothelial growth factor receptor VEGFR2 (an angiogenic marker). Analysis was conducted according to the method described by Adini et al. (2009) J. Immunol. Meth. 342:78-81.

SKOV3-derived tumors [5] = assay: SKOV3 xenograft, tumor vessel number by CD31 immunoreactivity; type: in vivo, mice; details: vs vehicle-treated animals; p<0.01
Procedure: as §1
(§3) For assessment of perfusion, the animals were injected intravenously with Hoechst 33342 (40 mg/kg) one minute prior to sacrifice and tumor removal was performed as described by Franco et al. (2006) Cancer Res. 66:3639-3648 and Rijken et al. (2000) Int. […] Bound anti-CD31 was detected with a goat anti-rat CY3-labeled antibody (Jackson Laboratories, Bar Harbor, Me.) and bound NG2 antibodies were detected with a Cy2-labeled anti-rabbit antibody (Jackson Laboratories, Bar Harbor, Me.). The stained sections were visualized using a confocal microscope or a Leica CTR 6000 microscope, and at least five microscopic fields were analyzed in each section. For analysis of perfusion, the coincidence of CD31-staining and Hoechst dye fluorescence was assessed. […]

SKOV3-derived tumors [6] = assay: SKOV3 xenograft, tumor perfusion by Hoechst 33342 / CD31 coincidence; type: in vivo; details: Hoechst 33342 40 mg/kg i.v. one minute before sacrifice; vs control mice; p<0.05
Procedure: as §1, §3

SKOV3-derived tumors [7] = assay: SKOV3 xenograft, pericytes by NG2 and CD31 staining; type: in vivo, mice; details: vs vehicle
Procedure: as §1, §3

[8] = system: bFGF-induced angiogenesis; assay: Matrigel plug assay, vessel counting and immunohistochemistry; type: in vivo, mice
Procedure: To determine if inhibition of LOXL2 could modulate angiogenesis in vivo, we examined the effects of the anti-LOXL2 antibody AB0023 on bFGF-induced angiogenesis, using a Matrigel plug assay. Kessler et al. (2004) Cancer Res. 64:1008-1015; Kibbey et al. (1992) J. Natl. Cancer Inst. 84:1633-1638.
For these experiments, either AB0023, at a concentration of 30 mg/kg, or vehicle (PBS+0.01% Tween-20) were injected intraperitoneally (30 mg/kg or equivalent volume) twice weekly into athymic female Ncr:Nu/Nu mice. After one week the mice were injected subcutaneously with 250 or 500 μl Matrigel (BD Biosciences, San Jose, Calif.) supplemented with 100 ng/ml human bFGF (Peprotech, Rocky Hill, N.J.) and 40 or 60 U heparin (Sigma, St. Louis, Mo.). Matrigel plugs were harvested after 10 days, excised together with attached skin, fixed in 10% neutral buffered formalin, and embedded in paraffin. Immunohistochemical analysis was performed on 5 μm serial sections with anti-CD31, anti-CD34, and anti-NG2 antibodies. 2 step sections separated by […] were analyzed per plug. Three representative 10× microscopic fields were selected per section per step, for a total of 6 fields per plug.
Immunohistochemical analysis was performed with anti-CD34 antibody on one representative section from each plug. Three representative 10× fields were selected per section for quantitation. For all IHC analysis of plugs, the mean area of signal was determined for each treatment group using Metamorph software (Molecular Devices).

[9] = system: human umbilical vein endothelial cells (HUVEC); assay: bFGF-induced HUVEC migration assay (transwell); type: cell-based; details: antibody 10 μg/ml, compared to control antibody AC-1; 5 hours
Procedure: To determine whether LOXL2 activity contributes to bFGF-induced migration of human umbilical vein endothelial cells (HUVEC), experiments were conducted in which expression of LOXL2 was inhibited using a LOXL2-targeted shRNA, and LOXL2 activity was inhibited using an anti-LOXL2 antibody.
as §2
For migration assays, HUVEC were seeded in transwell culture dishes (8 μm pores, 3×10^4 cells/well) coated with fibronectin (10 μg/ml, Biological Industries) in 200 μl of M199 medium containing 20% fetal calf serum. […] After 5 hours, cells that had migrated were fixed for 20 minutes with 4% paraformaldehyde, washed three times with PBS, stained with 0.05% crystal violet for 10 minutes, photographed, and counted.

[10] = independent experiment, vs vehicle

Row | Molecule | tumor growth (increase in tumor volume) [1] | effect on CA9 levels in tumors (SKOV3-derived tumors [2]; taxol 5 mg/kg twice weekly i.p.) | tube formation on Matrigel [3] | number of CD31+ cells in plugs (flow cytometry) [4] | number of VEGFR-2+/CD45- endothelial cells in plugs (flow cytometry) [4] | CD31 immunoreactivity in tumors (concentration of tumor-associated blood vessels) (SKOV3-derived tumors [5]) | tumor perfusion (Hoechst staining associated with CD31-positive vessels) (SKOV3-derived tumors [6]) | total number of NG2-expressing cells in tumors (SKOV3-derived tumors [7]) | concentration of vessel-associated pericytes in tumors (correspondence of CD31 and NG2 staining) (SKOV3-derived tumors [7]; p<0.01) | number of blood vessels in Matrigel plugs (whole plug vessel counting) ([8]; 30 mg/kg i.p. twice weekly, athymic Ncr:Nu/Nu mice, plugs after 10 days, vs vehicle) | CD31 levels in Matrigel plug sections ([8]; 30 mg/kg i.p. twice weekly, plugs after 10 days, vs vehicle) | CD34 immunoreactivity in implanted plugs ([8]; further study, vs vehicle and control antibody AC-1) | staining for CD34 in Matrigel plugs [8, 10] | staining for pericyte marker NG2 in Matrigel plugs [8, 10] | bFGF-induced cell migration of HUVEC [9] | reduction in CA9 levels in tumors (SKOV3-derived tumors [2]; AB0023 15 mg/kg twice weekly i.p., p<0.05)
1 | CC(=O)O[C@H]1C(=O)[C@@]2(C)[C@H]([C@H](OC(=O)c3ccccc3)[C@]3(O)C[C@H](OC(=O)[C@H](O)[C@@H](NC(=O)c4ccccc4)c4ccccc4)C(C)=C1C3(C)C)[C@]1(OC(C)=O)CO[C@@H]1C[C@@H]2O [taxol, paclitaxel, reference compound] | small, statistically insignificant inhibition | did not have a statistically significant effect |  |  |  |  |  |  |  |  |  |  |  |  |  | 
2 | AB0023: mouse monoclonal antibody directed against LOXL2; heavy and light chain variable regions SEQ ID NO:1 and 2 (antibody, listed as Mus musculus, V domains shown) VH: MEWSRVFIFLLSVTAGVHSQVQLQQSGAELVRPGTSVKVSCKASGYAFTYYLIEWVKQRPGQGLEWIGVINPGSGGTNYNEKFKGKATLTADKSSSTAYMQLSSLTSDDSAVYFCARNWMNFDYWGQGTTLTVSS VL: MRCLAEFLGLLVLWIPGAIGDIVMTQAAPSVSVTPGESVSISCRSSKSLLHSNGNTYLYWFLQRPGQSPQFLIYRMSNLASGVPDRFSGSGSGTAFTLRISRVEAEDVGVYYCMQHLEYPYTFGGGTKLEIK | did not inhibit tumor growth |  | inhibited | significantly reduced | significantly reduced | statistically significant decrease | better perfusion | not significantly changed | significantly increase | significant reduction | reduced | loss of CD34 immunoreactivity | significant reduction | significant reduction | inhibited | 66%
